Laboratory results from US11168316B2, “Chimeric clotting factors” (Bioverativ Therapeutics Inc., priority 2012, dated 2021).
Ends that are not written are not given here.

Molecular target: T1, thrombin (Homo sapiens, UniProt P00734)
T1 construct: followed by 50 μL of thrombin (278 nM, 10 μg/mL)
Experiment: Cleavage of peptides by 1.4 nM thrombin (HPLC)
Assay type: biochemical
Details: 50 μM peptide, 37° C.
Procedure: FIG. 19 depicts the cleavage of Compounds 1, 4, 5 and 6 by 1.4 nM thrombin. Compounds 1, 4 and 5 incorporate PABC and different thrombin-cleavable substrates. 50 μL of peptide (1 mM) in water was added to 900 μL PBS. The mixture was incubated at 37° C. for 30 min, followed by 50 μL of thrombin (27.8 nM, 1 μg/mL), giving the following approximate initial concentrations: thrombin=1.4 nM, peptide=50 μM. The mixture was incubated at 37° C. Aliquots (95 μL) at various time points were quenched with 5 μL of hirudin (2 μM) and injected into the HPLC (C-18 column, CH3CN/H2O, 0 to 70% over 12 minutes, 60° C. 0.5 mL/min, λ=280 nm). The decreases of peptide peak areas were used to calculate yield.

thrombin-mediated release of peptide IVGGQE: not observed
Substance: Ala-Leu-Val-Pro-Arg-Ile-Val-Gly-Gly-Gln-Glu-NH2 (ALVPRIVGGQE-NH2; also: PABC self-immolative linker, place not given here) [Compound 6]
